For test [1], the target named is T1, Env of HIV-1 IMC CH505 on infected CEM.NKR_(CCR5) cells (HIV-1 subtype C CH505 (703010505), strain).
T1 construct: source: HIV-1 IMC-infected CEM.NKR_(CCR5) cells, on the cell surface
Nature of the test: flow cytometry on cells. The following applies: one partner purified. A general note: Flow cytometry measures light scatter and fluorescence of single cells or particles in a stream.

For test [2], the target named is T2, Env of HIV-1 IMC SF162 on infected CEM.NKR_(CCR5) cells (HIV-1 subtype B SF162, UniProt P19550, strain).
T2 construct: source: HIV-1 IMC-infected CEM.NKR_(CCR5) cells, on the cell surface
Description: flow cytometry on cells. The following applies: one partner purified.

The target of test [3] is T3, Env of SHIV SF162.P3 on infected A66 cells (SHIV SF162.P3 Env (stand-in: parental …, UniProt P19550, strain)).
T3 construct: source: SHIV-infected A66 cells, on the cell surface
Nature of the test: flow cytometry on cells. The following applies: one partner purified.

In test [4] the target is T4, monomeric full length single chain (FLSC), a covalent dimer of gp120BaL and CD4 (HIV-1 subtype B BaL (gp120); Homo …, UniProt Q6TAP7;P01730).
T4 construct: gp120 of HIV-1 BaL; CD4, domain 1 and 2
Description: SPR; Biacore 3000; IgG immobilized on a protein A chip, antigen flowed over (FLSC 6.25-200 nM; gp41 peptide 6.4-25.6 μM; V2 peptide 12.5-50 μM); 10 mM HEPES pH 7.5, 150 mM NaCl, 0.05% Tween 20, 25 °C; 1:1 Langmuir model. The following applies: both partners purified. (In general: In SPR one partner is held on a chip, and binding of the other changes the refractive index at the surface.)

Test [5] has as its target T5, Env of HIV-1 IMC 1086.C on infected CEM.NKR_(CCR5) cells (HIV-1 subtype C 1086.C, UniProt C6G099, strain).
T5 construct: also called HIV-1 1086; source: HIV-1 IMC-infected CEM.NKR_(CCR5) cells, on the cell surface
Nature of the test: flow cytometry on cells. The following applies: one partner purified.

Test [6] concerns the target synthetic gp41 peptide (residues 596-606) with C-terminal amidation (HIV-1 subtype B BaL, UniProt Q6TAP7).
The target of test [7] is RhDH677.3 IgG1 (rhesusized variant of human DH677.3) (rhesus macaque (Macaca mulatta)). Description: SPR; imaging SPR (IBIS MX96); IgG immobilised on a carboxymethyldextran sensor (CMD200M) by carbodiimide chemistry with a Continuous Flow Microspotter, printed at 300 and 150 nM; soluble receptor as analyte from 20 uM, 1:3 over 8 points; 5 min association and 5 min dissociation; equilibrium KD (Scrubber 2). The following applies: both partners purified.

Test [8] has as its target Rh7B2 IgG1 (rhesusized variant of human 7B2) (rhesus macaque (Macaca mulatta)). Described as above. The following applies: both partners purified.
Test [9] deals with RhDH827 IgG1 (rhesusized variant of human DH827) (rhesus macaque (Macaca mulatta)). The test is described as above. The following applies: both partners purified.
For test [10], the target named is RM JR4 IgG1 (rhesus macaque mAb, C1C2 Cluster A region) (rhesus macaque (Macaca mulatta)). Described as above. The following applies: both partners purified.

Numbering of substitutions follows the chain as printed.

RM JR4 IgG1 (rhesus macaque mAb, C1C2 Cluster A region) (rhesus macaque (Macaca mulatta)), sequence (heavy, as listed by the source, chain 1 of 2): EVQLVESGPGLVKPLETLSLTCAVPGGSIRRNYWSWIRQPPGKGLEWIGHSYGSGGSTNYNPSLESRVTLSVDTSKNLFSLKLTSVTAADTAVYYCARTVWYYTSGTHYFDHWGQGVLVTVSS
RM JR4 IgG1 (rhesus macaque mAb, C1C2 Cluster A region) (rhesus macaque (Macaca mulatta)), sequence (light, as listed by the source, chain 2 of 2): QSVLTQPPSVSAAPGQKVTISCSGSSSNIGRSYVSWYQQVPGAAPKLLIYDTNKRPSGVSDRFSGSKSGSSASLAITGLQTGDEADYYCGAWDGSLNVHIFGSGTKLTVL

B1: RhDH677.3 IgG1 (antibody, V domains shown)
VH: QVQLVQSGAEVKKPGASVKLSCKASGYTFTSYDINWVRQAPGQGLEWMGWMNPKTGNTGYAQKFQGRVTMTRDTSTSTAYMELSSLRSEDTAVYYCATYRIIAAVGYRYFQYWGQGALVTVSS
VL: AIQMTQSPSSLSASVGDKVTITCRASQGFGNYLAWYQQKPGKVPKLLIYAATTLQSEVPSRFSGSGSGTDFTLTISSLQPEDVATYYCQKYNSAPFTFGQGTRLEIK
notes: also called rhesusized DH677.3
With B1, the binding result in test [1], in test [2] and in test [3] was “binds” each time. Also, the “fold change of KD against human DH677.3” value in test [4] was ~8 fold.

B2: RhDH827 IgG1 (antibody, V domains shown)
VH: EVQLVESGGGLVQPGGSLRLSCAASGFTFSNCAMHWVRQAPGKGLEWVAVISYHGSNKYYADYVKGRFTISRDNSKNMLYLQMNNLKLEDTAVYYCAREGGAPSGWALDYWGQGVLVTVSS
VL: SYELTQSPSVSVSPGQPASITCSGDKLGDKYACWYQQKPGQVPVLVIYEDTKRPSGIPERFSGSNSGNTATLTISGVEAGDEADYYCQAWDSITHVVFGGGTRLTVL
notes: also called rhesusized DH827
For B2, the binding result in [5], in test [1], in test [2] and in test [3] was “binds” throughout.

B3: 7B2 (antibody, V domains shown)
VH: QVQLVQSGGGVFKPGGSLRLSCEASGFTFTEYYMTWVRQAPGKGLEWLAYISKNGEYSKYSPSSNGRFTISRDNAKNSVFLQLDRLSADDTAVYYCARADGLTYFSELLQYIFDLWGQGARVTVSS
VL: ETTLTQSPDSLAVSPGERATIHCKSSQTLLYSSNNRHSIAWYQQRPGQPPKLLLYWASMRLSGVPDRFSGSGSGTDFTLTINNLQAEDVAIYYCHQYSSHPPTFGHGTRVELR
On to B3, for which, in test [6], the binding result is recorded as “binds”.

B4: Rh7B2 IgG1 (antibody, V domains shown)
VH: EVQLVESGGGLVQPGGSLRLSCAASGFTFTEYYMSWVRQAPGKGLEWVSYISKNGEYSYYADSVKGRFTISRDNAKNSLSLQMSSLRAEDTAVYYCTRADGLTYFSELLQYIFDLWGQGVLVTVSS
VL: DIVMTQSPDSLAVSLGERVTINCKSSQTLLYSSNNRHSIAWYQQKPGQAPKLLIYWASMRLSGVPNRFSGSGSGTDFTLTISGLQAEDVAVYYCHQYSSHPPTFGQGTKVEIK
notes: also called rhesusized 7B2
For the molecule B4, the binding result in [5], in [1], in test [2] and in test [3] was “binds” throughout.

B5: human FcγRIIa (R131) (receptor)
chain: QAAAPPKAVLKLEPPWINVLQEDSVTLTCQGARSPESDSIQWFHNGNLIPTHTQPSYRFKANNNDSGEYTCQTGQTSLSDPVHLTVLSEWLVLQTPHLEFQEGETIMLRCHSWKDKPLVKVTFFQNGKSQKFSRLDPTFSIPQANHSHSGDYHCTGNIGYTLFSSKPVTITVQVPSMGSSSPMG
For the molecule B5, the Kd in [7] amounted to 4600 nM; in [8], 2900 nM; in [9], 4600 nM; in [10], 2000 nM.

B6: rhesus macaque FcγRIIIa-1 (I158) (receptor)
chain: EDLPKAVVFLEPQWYRVLEKDSVTLKCQGAYSPEDNSTRWFHNESLISSQTSSYFIAAARVNNSGEYRCQTSLSTLSDPVQLEVHIGWLLLQAPRWVFKEEESIHLRCHSWKNTLLHKVTYLQNGKGRKYFHQNSDFYIPKATLKDSGSYFCRGLIGSKNVSSETVNITITQDLAVSSISSFFPPG
For the molecule B6, the Kd in test [7] was determined as 1100 nM; in test [8], 1000 nM; in test [9], 1300 nM; in test [10], 1100 nM.

B7: rhesus macaque FcγRIIIa-3 (V158) (receptor)
chain: B6 chain with I156V
modifications: N-glycosylated soluble ectodomain; limits from the UniProt extracellular domain. Mature 158 = precursor 176 (offset 18). Only V158 (against I158 in variant 1) is printed; other allelic differences of
For B7, the Kd in [7] stood at 1500 nM; in [8] it was 1600 nM; in test [9] it was 1900 nM; in [10] it was 1600 nM.

B8: DH827 (human IgG1) (antibody, V domains shown)
VH: EVQLVESGGGVVQPGRSLRLSCAASGFTFSNCAMHWVRQAPGKGLEWVAVISYHGSNKYYADYVKGRFTISRDNSKSTVYLQMNSPRAEDTAVYYCAKEGGAPSGWALDYWGQGTLVTVSS
VL: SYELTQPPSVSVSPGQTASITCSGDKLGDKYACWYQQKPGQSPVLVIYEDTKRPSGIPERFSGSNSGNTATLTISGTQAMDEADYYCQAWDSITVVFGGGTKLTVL
notes: also called human DH827
Consider B8, for which the binding result in test [5], in test [1] and in test [2] was “binds” in each case.

In general, Kd refers to the equilibrium constant for the complex coming apart.

Values taken from PMC8770954 (Frontiers in Immunology, 2021).
